Here are results for four molecules from publication PMC6436931, “Activation of the Endonuclease that Defines mRNA 3′ Ends Requires Incorporation into an 8-Subunit Core Cleavage and Polyadenylation Factor Complex” (Molecular Cell, 2019).

The target of the data set is T1, Ysh1;Mpe1 (Saccharomyces cerevisiae;Saccharomyces …, UniProt Q06224;P35728 1-779;1-441, |).
T1 sequence 1: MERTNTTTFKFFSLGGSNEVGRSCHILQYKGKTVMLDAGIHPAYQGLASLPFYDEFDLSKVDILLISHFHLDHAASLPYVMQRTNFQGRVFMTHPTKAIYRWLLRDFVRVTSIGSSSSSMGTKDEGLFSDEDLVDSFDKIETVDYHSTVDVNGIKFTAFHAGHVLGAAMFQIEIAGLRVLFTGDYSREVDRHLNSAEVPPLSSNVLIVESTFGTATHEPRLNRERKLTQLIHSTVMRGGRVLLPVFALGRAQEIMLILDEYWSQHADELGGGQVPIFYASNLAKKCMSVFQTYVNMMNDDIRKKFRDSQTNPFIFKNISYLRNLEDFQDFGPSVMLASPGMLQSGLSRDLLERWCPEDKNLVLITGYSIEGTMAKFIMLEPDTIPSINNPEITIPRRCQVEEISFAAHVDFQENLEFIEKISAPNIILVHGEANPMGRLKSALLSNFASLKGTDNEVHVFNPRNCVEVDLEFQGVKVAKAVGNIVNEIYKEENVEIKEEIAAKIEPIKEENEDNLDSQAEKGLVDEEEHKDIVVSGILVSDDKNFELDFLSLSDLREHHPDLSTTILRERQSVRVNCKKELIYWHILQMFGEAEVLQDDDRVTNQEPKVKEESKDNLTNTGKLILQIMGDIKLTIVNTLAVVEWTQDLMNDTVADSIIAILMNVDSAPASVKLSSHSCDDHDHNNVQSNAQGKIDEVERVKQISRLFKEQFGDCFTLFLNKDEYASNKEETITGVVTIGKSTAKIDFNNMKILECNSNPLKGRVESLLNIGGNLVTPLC
T1 sequence 2: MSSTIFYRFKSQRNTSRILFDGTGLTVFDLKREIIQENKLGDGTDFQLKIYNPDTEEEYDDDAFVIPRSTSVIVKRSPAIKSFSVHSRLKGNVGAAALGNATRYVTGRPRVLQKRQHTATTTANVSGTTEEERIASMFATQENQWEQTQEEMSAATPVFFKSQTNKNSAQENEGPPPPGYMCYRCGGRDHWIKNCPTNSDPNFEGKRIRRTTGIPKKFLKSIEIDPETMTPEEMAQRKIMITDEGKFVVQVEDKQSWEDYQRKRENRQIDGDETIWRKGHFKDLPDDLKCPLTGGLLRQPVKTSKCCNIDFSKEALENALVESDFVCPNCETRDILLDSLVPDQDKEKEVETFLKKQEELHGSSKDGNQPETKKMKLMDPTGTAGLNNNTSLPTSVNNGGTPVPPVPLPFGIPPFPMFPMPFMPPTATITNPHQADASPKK
Put plainly: EMSA; EMSA: 50 nM RNA, 0.25-4.0 uM protein, protein diluted in 10 mM HEPES pH 7.9, 150 mM NaCl, 0.5 mM Mg(OAc)2, plus 1x loading dye (orange G, glycerol, EDTA); 30 min on ice; native 6% acrylamide/TBE PAGE. As to conditions: protein: recombinant;recombinant; tags: ;3C-SII (C-terminal) in Ysh1-Mpe1 complexes; untagged in CPFcore; copies: 1;1; label: 5'-FAM. A general note: Mobility shift assays separate free from complexed probe on a gel.

B1: U15 (ssRNA)
RNA: UUUUUUUUUUUUUUU
B1: the binding result was “no binding”.

B2: G15 (ssRNA)
RNA: GGGGGGGGGGGGGGG
Consider B2, for which the binding result was “binds”.

B3: A15 (ssRNA)
RNA: AAAAAAAAAAAAAAA
As for B3, the binding result is listed as “no binding”.

B4: C15 (ssRNA)
RNA: CCCCCCCCCCCCCCC
On to B4, for which the binding result is “no binding”.
